Experimental data reported in paper PMC3435109 (2012).

Target: PKA catalytic subunit (Mus musculus, UniProt P05132)
Assay: SPR

| Kd [nM] | Binder |
| --- | --- |
| 11.3 | RIIβ 108-268 (protein) TRRASVCAEAYNPDEEEDDAESRIIHPKTDDQRNRLQEACKDILLFKNLDPEQMSQVLDAMFEKLVKEGEHVIDQGDDGDNFYVIDRGTFDIYVKCDGVGRCVGNYDNRGSFGELALMYNTPRAATITATSPGALWGLDRVTFRRIIVKNNAKKRKMYESF |
| 0.6 | RIIβ 102-265 (protein) PVINRFTRRASVCAEAYNPDEEEDDAESRIIHPKTDDQRNRLQEACKDILLFKNLDPEQMSQVLDAMFEKLVKEGEHVIDQGDDGDNFYVIDRGTFDIYVKCDGVGRCVGNYDNRGSFGELALMYNTPRAATITATSPGALWGLDRVTFRRIIVKNNAKKRKMY |
